The record followed here is PMC7505815, “Estrogen receptor alpha (ERα)–mediated coregulator binding and gene expression discriminates the toxic ERα agonist diethylstilbestrol (DES) from the endogenous ERα agonist 17β-estradiol (E2)” (Cell Biology and Toxicology, 2020).

The labels stand for the following.
T1: Polyhistidine (His) tagged ERα ligand binding domain (amino acids 302–552) (UniProt P03372 302-552)
T1 construct: Detected on the array by a penta-His Alexa Fluor 488 antibody; Always tested with E2, DES or solvent (2% DMSO); also called ERα-LBD; source: partly purified from Escherichia coli (Qiagen)
T1 sequence (looked up): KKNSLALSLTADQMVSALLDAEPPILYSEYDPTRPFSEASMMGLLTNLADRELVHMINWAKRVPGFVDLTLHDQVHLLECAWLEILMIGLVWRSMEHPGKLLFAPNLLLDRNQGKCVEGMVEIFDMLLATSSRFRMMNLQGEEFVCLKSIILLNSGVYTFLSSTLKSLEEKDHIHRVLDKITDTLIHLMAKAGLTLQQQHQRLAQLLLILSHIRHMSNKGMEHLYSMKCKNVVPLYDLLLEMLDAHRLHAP

B1: NRIP1_173_195_C177S (peptide, UniProt P48552 173-195, looked up)
peptide: KDLRSYGVASSHLKTLLKKSKVK
notes: Immobilised on the PamChip; source: bought: PamChip peptide microarray, PamGene International BV
B2: TRIP4_149_171_C171S (peptide, UniProt Q15650 149-171, looked up)
peptide: FVNLYTREGQDRLAVLLPGRHPS
notes: as for B1
B3: NRIP1_173_195 (peptide, UniProt P48552 173-195, looked up)
peptide: KDLRCYGVASSHLKTLLKKSKVK
notes: as for B1
B4: CBP_2055_2077 (peptide, UniProt Q92793 2055-2077, looked up)
peptide: SVQPPRSISPSALQDLLRTLKSP
notes: as for B1
B5: TIF1A_373_395_C394S (peptide, UniProt O15164 373-395, looked up)
peptide: TALLYSKRLITYRLRHLLRARSD
notes: as for B1
B6: NCOR1_662_684_C662S (peptide, UniProt O75376 662-684, looked up)
peptide: SKNFYFNYKRRHNLDNLLQQHKQ
notes: as for B1
B7: NCOA2_628_651 (peptide, UniProt Q15596 628-651, looked up)
peptide: GQSRLHDSKGQTKLLQLLTTKSDQ
notes: as for B1
B8: NCOA1_1421_1441 (peptide, UniProt Q15788 1421-1441, looked up)
peptide: TSGPQTPQAQQKSLLQQLLTE
notes: as for B1
B9: NCOA1_677_700 (peptide, UniProt Q15788 677-700, looked up)
peptide: PSSHSSLTERHKILHRLLQEGSPS
notes: as for B1
B10: ANDR_10_32 (peptide, UniProt P10275 10-32, looked up)
peptide: VYPRPPSKTYRGAFQNLFQSVRE
notes: Immobilised on the PamChip; also called Androgen receptor–related coregulator motif; source: bought: PamChip peptide microarray, PamGene International BV

One experiment has as its target T1, Polyhistidine (His) tagged ERα ligand …. The experiment is described as follows: peptide or protein array; MARCoNI, PamChip peptide microarray: coregulator motif peptides immobilised; His-ERα-LBD 10 nM (partly purified) in solution with E2 (10^-12 to 10^-5 M), detected with penta-His Alexa Fluor 488 antibody 25 nM; 20 °C; 20 mM Tris-HCl pH 7.5, 500 mM NaCl, 0.2% BSA, 0.05% Tween 20, 2% DMSO. As to conditions: both partners purified.
Take B1: the binding result is on record as “binds”.

In the case of B2, the binding result is “binds”. For the molecule B3, the binding result is given as “binds”. Same read-out and setting: for B4 the value was “binds”; for B5, “binds”; for B6, “binds”.

Another experiment shares this target. Described as above. As to conditions: both partners purified. The source holds these as a separate data set.
As to B7, the binding result was “binds”. Turning to B8, the binding result is listed as “binds”. For the molecule B9, the binding result is recorded as “binds”. For the molecule B10, the binding result was “binds”.
